Tests used:
human thrombin = human thrombin (human, UniProt P00734 328-622); assay: protease inhibition constant Ki, human enzyme
[1] = target: human coagulation factor Xa (human, UniProt P00742 41-179; P00742 235-488, limits assumed); assay: protease inhibition constant Ki, human enzyme
human plasmin = human plasmin (human, UniProt P00747 97-810); assay: protease inhibition constant Ki, human enzyme
[2] = target: T1, human coagulation factor VIIa (human, UniProt P08709 61-466); assay: protease inhibition constant Ki, human enzyme
T1 sequence (looked up): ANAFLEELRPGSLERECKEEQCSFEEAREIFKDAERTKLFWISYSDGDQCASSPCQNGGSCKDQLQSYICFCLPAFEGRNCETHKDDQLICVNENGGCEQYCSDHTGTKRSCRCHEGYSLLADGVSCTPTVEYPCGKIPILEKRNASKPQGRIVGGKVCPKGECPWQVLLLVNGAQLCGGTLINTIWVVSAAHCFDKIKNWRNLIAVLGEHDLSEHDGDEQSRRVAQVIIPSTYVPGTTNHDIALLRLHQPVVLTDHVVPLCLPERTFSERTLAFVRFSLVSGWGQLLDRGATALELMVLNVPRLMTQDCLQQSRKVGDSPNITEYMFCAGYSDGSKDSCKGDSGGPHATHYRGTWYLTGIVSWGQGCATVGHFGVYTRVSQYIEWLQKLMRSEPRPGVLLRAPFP

human kallikrein = human kallikrein (human, UniProt P03952 20-638, limits assumed); assay: protease inhibition constant Ki, human enzyme
human kallikrein, sequence (P03952 20-638 limits assumed): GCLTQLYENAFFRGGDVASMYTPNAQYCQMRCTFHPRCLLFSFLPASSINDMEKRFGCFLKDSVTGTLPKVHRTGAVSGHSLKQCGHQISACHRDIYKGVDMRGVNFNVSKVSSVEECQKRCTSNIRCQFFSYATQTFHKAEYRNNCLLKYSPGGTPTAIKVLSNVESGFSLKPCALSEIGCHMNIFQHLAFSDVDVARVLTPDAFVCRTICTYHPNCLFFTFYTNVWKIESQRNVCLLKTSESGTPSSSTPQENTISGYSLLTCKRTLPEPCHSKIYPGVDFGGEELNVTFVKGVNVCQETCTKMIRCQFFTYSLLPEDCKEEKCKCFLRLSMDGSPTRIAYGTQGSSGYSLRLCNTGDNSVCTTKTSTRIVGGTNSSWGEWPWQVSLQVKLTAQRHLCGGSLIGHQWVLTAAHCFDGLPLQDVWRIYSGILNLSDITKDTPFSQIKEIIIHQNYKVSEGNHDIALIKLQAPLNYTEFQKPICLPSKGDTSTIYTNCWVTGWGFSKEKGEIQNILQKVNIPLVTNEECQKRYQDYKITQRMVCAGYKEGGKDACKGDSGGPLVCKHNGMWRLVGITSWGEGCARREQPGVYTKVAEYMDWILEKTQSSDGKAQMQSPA

mouse thrombin = target: T2, mouse thrombin (mouse, UniProt P19221 325-618); assay: protease inhibition constant Ki, mouse enzyme
T2 construct: also called Thrombin (mice)

mouse plasmin = target: T3, mouse plasmin (mouse, UniProt P20918 98-812); assay: protease inhibition constant Ki, mouse enzyme
T3 construct: also called Plasmin (mice)
T3 sequence (P20918 98-812 limits assumed): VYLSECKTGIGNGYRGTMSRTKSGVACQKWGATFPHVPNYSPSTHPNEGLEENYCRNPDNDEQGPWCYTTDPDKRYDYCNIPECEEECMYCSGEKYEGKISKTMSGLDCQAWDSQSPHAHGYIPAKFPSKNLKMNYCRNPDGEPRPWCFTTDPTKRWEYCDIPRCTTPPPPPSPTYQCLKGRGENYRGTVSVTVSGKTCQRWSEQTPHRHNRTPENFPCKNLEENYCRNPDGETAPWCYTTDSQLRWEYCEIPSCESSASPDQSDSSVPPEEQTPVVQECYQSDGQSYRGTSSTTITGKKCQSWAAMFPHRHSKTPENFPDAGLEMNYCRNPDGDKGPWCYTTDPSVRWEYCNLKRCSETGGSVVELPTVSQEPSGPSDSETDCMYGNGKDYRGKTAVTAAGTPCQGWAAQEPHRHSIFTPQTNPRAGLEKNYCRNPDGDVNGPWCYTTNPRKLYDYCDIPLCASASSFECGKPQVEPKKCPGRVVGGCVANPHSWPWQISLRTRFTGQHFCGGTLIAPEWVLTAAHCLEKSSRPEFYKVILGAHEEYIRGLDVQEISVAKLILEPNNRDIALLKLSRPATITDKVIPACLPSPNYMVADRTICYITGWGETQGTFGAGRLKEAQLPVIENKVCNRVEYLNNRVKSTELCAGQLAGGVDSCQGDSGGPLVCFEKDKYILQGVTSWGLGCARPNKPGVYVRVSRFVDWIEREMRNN

mouse kallikrein = target: T4, mouse kallikrein (mouse, UniProt P26262 20-638, limits assumed); assay: protease inhibition constant Ki, mouse enzyme
T4 construct: also called Kallikrein (mice)
T4 sequence (P26262 20-638 limits assumed): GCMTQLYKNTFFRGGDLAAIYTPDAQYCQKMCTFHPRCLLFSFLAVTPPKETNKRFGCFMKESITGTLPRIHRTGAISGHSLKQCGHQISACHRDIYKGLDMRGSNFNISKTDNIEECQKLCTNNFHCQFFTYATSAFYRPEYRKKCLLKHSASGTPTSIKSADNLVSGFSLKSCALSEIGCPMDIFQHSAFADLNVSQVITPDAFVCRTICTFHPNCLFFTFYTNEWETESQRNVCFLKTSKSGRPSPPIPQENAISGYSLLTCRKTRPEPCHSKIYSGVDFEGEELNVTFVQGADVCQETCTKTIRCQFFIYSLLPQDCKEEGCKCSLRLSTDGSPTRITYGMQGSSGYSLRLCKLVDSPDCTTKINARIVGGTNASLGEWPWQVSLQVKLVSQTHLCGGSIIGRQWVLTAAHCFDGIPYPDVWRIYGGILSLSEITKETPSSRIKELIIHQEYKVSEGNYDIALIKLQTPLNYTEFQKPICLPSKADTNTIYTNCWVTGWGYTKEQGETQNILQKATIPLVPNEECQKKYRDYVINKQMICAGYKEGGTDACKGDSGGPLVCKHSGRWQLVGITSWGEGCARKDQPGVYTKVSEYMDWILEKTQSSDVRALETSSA

[3] = target: T5, mouse coagulation factor IXa (mouse, UniProt P16294 47-192; P16294 237-471); assay: protease inhibition constant Ki, mouse enzyme
T5 construct: also called IXa (mice)
T5 sequence (P16294 47-192 limits assumed, chain 1 of 2): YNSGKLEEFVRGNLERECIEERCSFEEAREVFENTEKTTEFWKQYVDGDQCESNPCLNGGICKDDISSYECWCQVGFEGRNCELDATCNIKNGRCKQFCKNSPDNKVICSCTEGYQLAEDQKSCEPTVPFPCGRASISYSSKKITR
T5 sequence (P16294 237-471 limits assumed, chain 2 of 2): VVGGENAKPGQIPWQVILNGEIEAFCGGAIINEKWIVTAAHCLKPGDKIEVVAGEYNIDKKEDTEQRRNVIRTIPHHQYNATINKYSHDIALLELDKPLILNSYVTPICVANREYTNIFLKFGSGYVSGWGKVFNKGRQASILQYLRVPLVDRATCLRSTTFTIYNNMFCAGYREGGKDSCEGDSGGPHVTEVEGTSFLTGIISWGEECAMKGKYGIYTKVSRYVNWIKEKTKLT

[4] = target: T6, mouse coagulation factor Xa (mouse, UniProt O88947 41-180; O88947 232-481, limits assumed); assay: protease inhibition constant Ki, mouse enzyme
T6 construct: also called Xa (mice)
T6 sequence (O88947 41-180 limits assumed, chain 1 of 2): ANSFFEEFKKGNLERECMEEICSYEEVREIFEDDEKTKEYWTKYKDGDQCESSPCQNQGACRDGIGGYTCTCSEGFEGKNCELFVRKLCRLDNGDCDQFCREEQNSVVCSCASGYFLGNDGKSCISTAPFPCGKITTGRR
T6 sequence (O88947 232-481 limits assumed, chain 2 of 2): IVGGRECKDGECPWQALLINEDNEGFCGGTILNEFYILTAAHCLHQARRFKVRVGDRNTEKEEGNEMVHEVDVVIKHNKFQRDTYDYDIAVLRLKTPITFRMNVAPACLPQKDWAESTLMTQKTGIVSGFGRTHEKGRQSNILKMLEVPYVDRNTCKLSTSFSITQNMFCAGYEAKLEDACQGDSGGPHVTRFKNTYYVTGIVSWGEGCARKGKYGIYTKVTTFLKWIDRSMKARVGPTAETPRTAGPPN

human plasmin, sequence (P00747 97-810 limits assumed): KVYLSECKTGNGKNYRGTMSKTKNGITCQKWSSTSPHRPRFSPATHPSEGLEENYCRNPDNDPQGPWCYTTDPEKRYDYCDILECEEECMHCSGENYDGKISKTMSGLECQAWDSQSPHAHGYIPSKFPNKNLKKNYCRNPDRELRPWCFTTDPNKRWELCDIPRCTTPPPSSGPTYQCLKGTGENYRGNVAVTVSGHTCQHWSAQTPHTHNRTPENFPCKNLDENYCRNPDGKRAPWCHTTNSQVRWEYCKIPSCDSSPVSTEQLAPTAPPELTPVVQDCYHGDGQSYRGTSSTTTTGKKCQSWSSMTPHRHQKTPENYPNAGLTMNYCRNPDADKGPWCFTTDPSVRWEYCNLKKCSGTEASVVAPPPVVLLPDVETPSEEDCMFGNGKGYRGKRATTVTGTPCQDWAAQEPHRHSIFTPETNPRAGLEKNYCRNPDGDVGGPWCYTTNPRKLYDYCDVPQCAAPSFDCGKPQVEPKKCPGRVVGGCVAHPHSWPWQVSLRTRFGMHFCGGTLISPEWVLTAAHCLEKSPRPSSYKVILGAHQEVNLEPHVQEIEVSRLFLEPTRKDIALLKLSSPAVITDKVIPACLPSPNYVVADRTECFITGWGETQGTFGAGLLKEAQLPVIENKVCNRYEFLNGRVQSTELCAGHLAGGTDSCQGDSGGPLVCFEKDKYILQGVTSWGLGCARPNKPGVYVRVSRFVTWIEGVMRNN
human coagulation factor Xa, sequence (P00742 41-179 limits assumed, chain 1 of 2): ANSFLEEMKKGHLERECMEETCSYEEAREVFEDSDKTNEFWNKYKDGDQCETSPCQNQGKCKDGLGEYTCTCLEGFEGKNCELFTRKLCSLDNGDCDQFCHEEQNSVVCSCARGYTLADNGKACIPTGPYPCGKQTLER
human coagulation factor Xa, sequence (P00742 235-488 limits assumed, chain 2 of 2): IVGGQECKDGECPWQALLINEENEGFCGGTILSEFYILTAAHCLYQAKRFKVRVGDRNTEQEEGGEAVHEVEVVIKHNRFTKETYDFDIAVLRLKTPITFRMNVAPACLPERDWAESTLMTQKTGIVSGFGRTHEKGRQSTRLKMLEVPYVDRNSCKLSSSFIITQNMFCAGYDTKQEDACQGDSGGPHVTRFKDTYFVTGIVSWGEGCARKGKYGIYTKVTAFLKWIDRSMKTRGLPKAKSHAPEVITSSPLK

B1: Ecotin variant NB141 (M84R/S82H) (other)
chain: AESVQPLEKIAPYPQAEKGMKRQVIQLTPQEDESTLKVELLIGQTLEVDCNLHRLGGKLENKTLEGWGYDYYVFDKVSSPVHTRMACPDGKKEKKFVTAYLGDAGMLRYNSKLPIVVYTPDNVDVKYRVWKAEEKIDNAVVR
Human thrombin
  Ki: 1.6 nM
[1]
  Ki: 0.2 nM
Human plasmin
  Ki: 18.7 nM
[2]
  Ki: 0.2 nM
Human kallikrein
  Ki: 0.07 nM
Mouse thrombin
  Ki: 11.6 nM
Mouse plasmin
  Ki: 1.2 nM
Mouse kallikrein
  Ki: 0.2 nM
[3]
  Ki: 0.6 nM
[4]
  Ki: 0.2 nM
